A word on the Kd: it is a measure of binding affinity in units of concentration.

For series [1], the target named is β-site APP-cleaving enzyme 1 (BACE1) (UniProt P56817).
Series [2] deals with BACE1 extracellular domain (human, UniProt P56817 46-457). The experiment in a line: indirect ELISA (plate-coated BACE1); ELISA: BACE1 coated in 1x PBS, 5% BSA block, PBST (0.01% Tween 20, pH 7.4) wash, aptamer 60 min at 37 C; SELEX binding buffer: 1x PBS, 5 mM MgCl2, 0.45% glucose, tRNA, salmon sperm DNA, BSA; FRET: kit Fluorescent Assay Buffer, 37 C, 4 h. Particulars: protein: commercial; predicted stem-loop.
Chain of BACE1 extracellular domain (P56817 46-457): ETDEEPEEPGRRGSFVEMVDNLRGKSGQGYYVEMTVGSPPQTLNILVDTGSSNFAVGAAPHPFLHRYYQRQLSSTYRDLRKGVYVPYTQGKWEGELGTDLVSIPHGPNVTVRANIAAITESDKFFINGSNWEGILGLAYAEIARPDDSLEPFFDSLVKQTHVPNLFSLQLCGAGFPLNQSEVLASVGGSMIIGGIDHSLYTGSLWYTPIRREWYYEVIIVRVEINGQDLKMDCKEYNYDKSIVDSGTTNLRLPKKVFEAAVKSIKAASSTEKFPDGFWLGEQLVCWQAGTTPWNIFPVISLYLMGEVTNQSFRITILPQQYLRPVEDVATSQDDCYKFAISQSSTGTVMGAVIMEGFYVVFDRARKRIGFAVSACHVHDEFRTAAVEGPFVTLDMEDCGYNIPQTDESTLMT

Chain of β-site APP-cleaving enzyme 1 (BACE1) (P56817 46-501): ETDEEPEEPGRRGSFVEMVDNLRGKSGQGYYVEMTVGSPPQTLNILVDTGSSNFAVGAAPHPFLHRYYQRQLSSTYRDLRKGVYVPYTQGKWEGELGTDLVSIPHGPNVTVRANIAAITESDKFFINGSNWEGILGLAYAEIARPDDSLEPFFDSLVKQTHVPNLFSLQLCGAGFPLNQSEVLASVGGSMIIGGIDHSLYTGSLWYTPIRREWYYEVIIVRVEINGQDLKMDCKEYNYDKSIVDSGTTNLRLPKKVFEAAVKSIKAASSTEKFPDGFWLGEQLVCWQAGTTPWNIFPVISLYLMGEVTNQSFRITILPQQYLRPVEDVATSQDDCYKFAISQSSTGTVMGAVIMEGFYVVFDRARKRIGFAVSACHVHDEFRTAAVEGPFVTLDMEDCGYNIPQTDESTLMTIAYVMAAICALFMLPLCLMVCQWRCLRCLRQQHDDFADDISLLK

In series [1], “[Asn670, Sta671, Val672]-Amyloid β/A4 Precursor Protein 770 Fragment 662–675 (from UniProt P05067 662-675) (peptide)” registered an IC50 of inhibition of BACE1 activity (cleavage of a fluorescent substrate, FRET assay of the BACE1 Activity Detection Kit, 4 h, 37°C) of 242 nM.

B1: A4 (ssDNA)
DNA: GCAATGGTACGGTACTTCCTGTGTTATTGTTATGTTTTTTCAGTGTAGTCAAAAGTGCACGCTACTTTGCTAA
For B1, in series [2], the Kd is 15.3 ± 2.03 nM.

B2: A1 (ssDNA)
DNA: GCAATGGTACGGTACTTCCGTCATCAGCTTGTGATGTGGATGCGAACTGCAAAAGTGCACGCTACTTTGCTAA
B2: in series [2], the Kd is 68.6 ± 8.12 nM.

The values are drawn from article PMC4608735, “Inhibition of BACE1 Activity by a DNA Aptamer in an Alzheimer’s Disease Cell Model”.
